Assay results taken from FireProtDB (doi:10.1016/0167-4838(93)90045-s).

Conditions: Carica papaya, Thermal, DSC, glycine 0.05M, reversible: No

Chain of Chymopapain wild type, P14080 (P14080 whole entry): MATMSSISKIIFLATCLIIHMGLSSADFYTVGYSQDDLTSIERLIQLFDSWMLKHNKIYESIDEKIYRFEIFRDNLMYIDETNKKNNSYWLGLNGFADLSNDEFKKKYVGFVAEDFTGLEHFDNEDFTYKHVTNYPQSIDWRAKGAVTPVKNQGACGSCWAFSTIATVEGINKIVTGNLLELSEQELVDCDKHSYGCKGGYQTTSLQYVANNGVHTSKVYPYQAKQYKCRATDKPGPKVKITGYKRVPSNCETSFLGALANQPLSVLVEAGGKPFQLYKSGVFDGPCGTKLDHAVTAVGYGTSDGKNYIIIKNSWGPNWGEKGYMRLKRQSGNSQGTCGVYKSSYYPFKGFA

In the case of Chymopapain wild type, P14080, the Tm (pH 1.2) is reported as 43 °C, the “unfolding enthalpy (calorimetric)” value (pH 1.2) is reported as 105 kcal/mol and the Tm (pH 1.91) is reported as 56.9 °C. For the same substance, the “unfolding enthalpy (calorimetric)” value (pH 1.91) was 138 kcal/mol, the Tm (pH 2.2) was 62 °C and the “unfolding enthalpy (calorimetric)” value (pH 2.2) was 144 kcal/mol. For the same substance, the Tm (pH 2.35) was 67.9 °C, the “unfolding enthalpy (calorimetric)” value (pH 2.35) was 161 kcal/mol and the Tm (pH 2.56) was 75.2 °C. The “unfolding enthalpy (calorimetric)” value (pH 2.56) was 174 kcal/mol, the Tm (pH 3.18) was 81.1 °C and the “unfolding enthalpy (calorimetric)” value (pH 3.18) was 193 kcal/mol. For the same substance, the Tm (pH 3.45) was 83.7 °C and the “unfolding enthalpy (calorimetric)” value (pH 3.45) was 199 kcal/mol.
